Test results as given in article PMC12685370, “Loop-mediated regulation and base flipping drive RNA cleavage by human mitochondrial PNPase” (Nucleic Acids Research, 2025).

How the values were obtained:
[1] = target: T1, hPNPase (human polynucleotide phosphorylase), hPNPase-TS (Homo sapiens, UniProt Q8TCS8); experiment: cryo-EM structure; type: binding; settings: 2 mM NaH2PO4, 2 mM MgCl2, pH 8.0; active site of PH2 domain (S482-484, H450, R446), no RNA; co-substrate of phosphorolysis; also in 9NO0 with PT5 RNA
T1 construct: gene PNPT1; residues 46-783, mitochondrial targeting signal removed, C-terminal Twin-Strep-tag kept, expressed in MEXi-293E cells, homotrimer
T1 sequence (Q8TCS8 46-783): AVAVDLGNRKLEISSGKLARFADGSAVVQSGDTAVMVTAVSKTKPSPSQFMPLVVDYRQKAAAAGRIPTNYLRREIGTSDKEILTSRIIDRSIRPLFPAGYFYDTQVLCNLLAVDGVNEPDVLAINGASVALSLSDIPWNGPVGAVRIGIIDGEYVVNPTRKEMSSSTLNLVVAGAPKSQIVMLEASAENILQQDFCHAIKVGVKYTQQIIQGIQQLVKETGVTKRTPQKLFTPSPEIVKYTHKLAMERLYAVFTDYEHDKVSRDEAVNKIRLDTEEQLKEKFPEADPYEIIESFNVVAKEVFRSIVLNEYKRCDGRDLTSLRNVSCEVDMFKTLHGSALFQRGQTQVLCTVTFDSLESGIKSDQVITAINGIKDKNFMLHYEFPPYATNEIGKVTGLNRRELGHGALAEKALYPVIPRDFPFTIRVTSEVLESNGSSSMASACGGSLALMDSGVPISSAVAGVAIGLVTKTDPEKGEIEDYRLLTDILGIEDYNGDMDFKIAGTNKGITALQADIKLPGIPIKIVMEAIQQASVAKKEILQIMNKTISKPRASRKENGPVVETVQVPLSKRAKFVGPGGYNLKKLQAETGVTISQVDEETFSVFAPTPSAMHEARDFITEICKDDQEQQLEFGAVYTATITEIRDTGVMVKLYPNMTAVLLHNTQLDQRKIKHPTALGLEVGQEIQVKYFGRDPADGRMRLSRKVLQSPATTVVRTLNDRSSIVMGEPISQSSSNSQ

[2] = target: T2, hPNPase (human mitochondrial polynucleotide phosphorylase) (Homo sapiens, UniProt Q8TCS8 46-783); experiment: cryo-EM structure; sulfate in place of phosphate, Mg2+; pre-catalytic state, 2.2 A, 6 nt modelled; Protein SEC buffer: 20 mM HEPES-NaOH pH 8.0, 150 mM NaCl, 1 mM MgCl2, 1 mM DTT, 1% glycerol; competition as in RNA degradation assay (conditions not in material); sulfate 2 mM in the assay replacing phosphate; settings: protein: recombinant; tags: C-terminal Twin-Strep-tag; chain copies: 3; label: 5'-FAM; single strand
T2 sequence: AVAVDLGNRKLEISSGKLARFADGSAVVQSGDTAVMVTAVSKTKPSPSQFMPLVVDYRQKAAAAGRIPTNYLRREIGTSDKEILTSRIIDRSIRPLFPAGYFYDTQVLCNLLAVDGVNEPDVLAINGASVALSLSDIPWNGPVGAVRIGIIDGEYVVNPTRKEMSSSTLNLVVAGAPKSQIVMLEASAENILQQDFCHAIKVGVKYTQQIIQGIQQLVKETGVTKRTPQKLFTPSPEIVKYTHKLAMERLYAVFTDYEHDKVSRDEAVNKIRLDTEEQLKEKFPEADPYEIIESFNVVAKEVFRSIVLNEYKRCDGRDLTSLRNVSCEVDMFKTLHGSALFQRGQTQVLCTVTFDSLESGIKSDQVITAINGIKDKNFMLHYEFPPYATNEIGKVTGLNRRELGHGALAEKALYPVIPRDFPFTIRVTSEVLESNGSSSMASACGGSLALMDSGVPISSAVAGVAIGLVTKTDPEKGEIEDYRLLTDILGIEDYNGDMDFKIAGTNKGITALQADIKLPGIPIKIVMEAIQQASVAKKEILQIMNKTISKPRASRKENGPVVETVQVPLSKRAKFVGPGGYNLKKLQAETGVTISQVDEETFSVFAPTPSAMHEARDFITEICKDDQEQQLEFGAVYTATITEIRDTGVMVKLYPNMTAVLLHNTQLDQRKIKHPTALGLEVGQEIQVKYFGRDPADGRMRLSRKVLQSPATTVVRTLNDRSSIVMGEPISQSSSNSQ

[3] = target: the molecule itself; experiment: cryo-EM structure; single-particle cryo-EM of 1.5 uM hPNPase-TS in RNA degradation buffer (10 mM HEPES pH 8.0, 50 mM NaCl, 2 mM MgCl2, 2 mM DTT, 2 mM NaH2PO4); apo (with Pi), RNA loading state (PT5 RNA) and pre-catalytic state (10 mM Na2SO4, 0.1 mM NaH2PO4, RNA); refined in C1

Molecule: O=P(O)(O)O [Pi, phosphate]
- cryo-EM structure [1]: The phosphate ion is present in each protomer and coordinated by S482-484, H450, and R446

B1: FAM_PNP_RNA_long (ssRNA)
RNA: CACAACACACACCACACACACAUAAAACAAAACAGCUACGCCAUCCUCCCCCCAAUCUA
- binding result [2]: binds

B2: human polynucleotide phosphorylase (hPNPase), amino acids 46-783, with C-terminal Twin-Strep-tag (enzyme, UniProt Q8TCS8 46-783, looked up)
chain: AVAVDLGNRKLEISSGKLARFADGSAVVQSGDTAVMVTAVSKTKPSPSQFMPLVVDYRQKAAAAGRIPTNYLRREIGTSDKEILTSRIIDRSIRPLFPAGYFYDTQVLCNLLAVDGVNEPDVLAINGASVALSLSDIPWNGPVGAVRIGIIDGEYVVNPTRKEMSSSTLNLVVAGAPKSQIVMLEASAENILQQDFCHAIKVGVKYTQQIIQGIQQLVKETGVTKRTPQKLFTPSPEIVKYTHKLAMERLYAVFTDYEHDKVSRDEAVNKIRLDTEEQLKEKFPEADPYEIIESFNVVAKEVFRSIVLNEYKRCDGRDLTSLRNVSCEVDMFKTLHGSALFQRGQTQVLCTVTFDSLESGIKSDQVITAINGIKDKNFMLHYEFPPYATNEIGKVTGLNRRELGHGALAEKALYPVIPRDFPFTIRVTSEVLESNGSSSMASACGGSLALMDSGVPISSAVAGVAIGLVTKTDPEKGEIEDYRLLTDILGIEDYNGDMDFKIAGTNKGITALQADIKLPGIPIKIVMEAIQQASVAKKEILQIMNKTISKPRASRKENGPVVETVQVPLSKRAKFVGPGGYNLKKLQAETGVTISQVDEETFSVFAPTPSAMHEARDFITEICKDDQEQQLEFGAVYTATITEIRDTGVMVKLYPNMTAVLLHNTQLDQRKIKHPTALGLEVGQEIQVKYFGRDPADGRMRLSRKVLQSPATTVVRTLNDRSSIVMGEPISQSSSNSQ
notes: human polynucleotide phosphorylase (hPNPase), amino acids 46-783, without the N-terminal mitochondrial targeting signal; gene codon optimized for human cell lines; S1 domain not modelled in the structures; Cloned into the vector pDSG103 (IBA); Homotrimer in all cryo-EM reconstructions; also called hPNPase-TS; human mitochondrial PNPase; source: MEXi-293E cells, transfected, purified …
- stoichiometry N [3]: 3
